Where a chain is given by its changes, count along the chain named. Non-standard residues stand in square brackets, D forms with d. Primed or numbered codes have the meaning given here. No end group written: not given here. Aib′ = alpha aminobutyric acid (source's wording)
B1: cgGLP-13 (SEQ ID NO: 8 + 20k PEG monomer) (peptide)
peptide: HGEGTFTSDVSSYLEGC(PEG 20 kDa)AAKEFIAWLKNGGPSSGAPPPS
B2: HGEGT FTSDV SSYLE [Aib]QAAK EFIAW LVKGR G-AMIDE (SEQ ID NO: 15) (peptide)
peptide: HGEGTFTSDVSSYLE[Aib′]QAAKEFIAWLVKGRG-NH2
B3: mgGLP32 & mgGLP-20 (SEQ ID NO: 18 + 20k PEG) (peptide)
peptide: HGEGTFTSDVSSYLE[Aib′]QAAKEFIAWLVKGRGC(mPEG‑maleimide 20 kDa)A-NH2
notes: also called cgGLP30
B4: mgGLP-16 (SEQ ID NO: 20 + 20k PEG) (peptide)
peptide: HGEGTFTSDVSSYLE[Aib′]QAAKEFIAWLVKGRGC(mPEG‑maleimide 20 kDa)G-NH2
B5: mgGLP19 & cgGLP- (SEQ ID NO: 21 + 20k PEG) (peptide)
peptide: HGEGTFTSDVSSYLE[Aib′]QAAKEFIAWLVKGRGC(mPEG‑maleimide 20 kDa)SG
notes: also called cgGLP-19
B6: cgGLP-24 cgGLP-27, mgGLP-22, mgGLP-33 & mgGLP-27 (SEQ ID NO: 22 + 20k PEG) (peptide)
peptide: HGEGTFTSDVSSYLE[Aib′]QAAKEFIAWLVKGRGC(mPEG‑maleimide 20 kDa)SG-NH2
B7: cpGLP-25 (SEQ ID NO: 22 + 5k PEG) (peptide)
peptide: HGEGTFTSDVSSYLE[Aib′]QAAKEFIAWLVKGRGC(mPEG‑maleimide 5 kDa)SG-NH2
notes: also called cgGLP-25
B8: cgGLP-26 (SEQ ID NO: 22 + 10k PEG) (peptide)
peptide: HGEGTFTSDVSSYLE[Aib′]QAAKEFIAWLVKGRGC(mPEG‑maleimide 10 kDa)SG-NH2
B9: A-GLP-1 (SEQ ID NO: 247) (peptide)
peptide: AHAEGTFTSDVSSYLEGQAAKEFIAWLVKGR
notes: Not pegylated
B10: G-GLP-1 (SEQ ID NO: 248) (peptide)
peptide: B9 peptide with A1G
modifications: not fully specified
notes: Not pegylated
B11: M-GLP1 (SEQ ID NO: 256) (peptide)
peptide: B9 peptide with A1M
notes: Not pegylated
B12: P-GLP-1 (SEQ ID NO: 249) (peptide)
peptide: B9 peptide with A1P
modifications: ends and bridges not checked
notes: Not pegylated; also called P-CLP-1
B13: S-GLP-1 (SEQ ID NO: 250) (peptide)
peptide: B9 peptide with A1S
modifications: ends and bridges not checked
notes: Not pegylated; also called S-CLP-1
B14: T-GLP-1 (SEQ ID NO: 251) (peptide)
peptide: B9 peptide with A1T
modifications: not fully specified; ends and bridges not checked
notes: Not pegylated
B15: V-GLP-1 (SEQ ID NO: 252) (peptide)
peptide: B9 peptide with A1V
modifications: ends and bridges not checked
notes: Not pegylated
B16: MQ-GLP1 (SEQ ID NO: 253) (peptide)
peptide: MQHAEGTFTSDVSSYLEGQAAKEFIAWLVKGR
modifications: ends and bridges not checked
notes: Not pegylated
B17: MD-GLP1 (SEQ ID NO: 261) (peptide)
peptide: B16 peptide with Q2D
notes: Not pegylated
B18: ME-GLP1 (SEQ ID NO: 264) (peptide)
peptide: B16 peptide with Q2E
notes: Not pegylated
B19: MF-GLP1 (SEQ ID NO: 266) (peptide)
peptide: B16 peptide with Q2F
modifications: ends and bridges not checked
notes: Not pegylated
B20: MH-GLP1 (SEQ ID NO: 257) (peptide)
peptide: B16 peptide with Q2H
modifications: ends and bridges not checked
notes: Not pegylated
B21: MI-GLP1 (SEQ ID NO: 260) (peptide)
peptide: B16 peptide with Q2I
modifications: not fully specified; ends and bridges not checked
notes: Not pegylated
B22: MK-GLP1 (SEQ ID NO: 255) (peptide)
peptide: B16 peptide with Q2K
modifications: not fully specified; ends and bridges not checked
notes: Not pegylated
B23: ML-GLP1 (SEQ ID NO: 262) (peptide)
peptide: B16 peptide with Q2L
modifications: ends and bridges not checked
notes: Not pegylated
B24: MM-GLP1 (SEQ ID NO: 267) (peptide)
peptide: B16 peptide with Q2M
modifications: not fully specified; ends and bridges not checked
notes: Not pegylated
B25: MN-GLP1 (SEQ ID NO: 263) (peptide)
peptide: B16 peptide with Q2N
modifications: ends and bridges not checked
notes: Not pegylated
B26: MR-GLP1 (SEQ ID NO: 254) (peptide)
peptide: B16 peptide with Q2R
modifications: ends and bridges not checked
notes: Not pegylated
B27: MW-GLP1 (SEQ ID NO: 265) (peptide)
peptide: B16 peptide with Q2W
modifications: ends and bridges not checked
notes: Not pegylated
B28: MY-GLP1 (SEQ ID NO: 259) (peptide)
peptide: B16 peptide with Q2Y
modifications: ends and bridges not checked
notes: Not pegylated
B29: MHH-GLP1 (SEQ ID NO: 258) (peptide)
peptide: MHHHAEGTFTSDVSSYLEGQAAKEFIAWLVKGR
modifications: ends and bridges not checked
notes: Not pegylated

What follows are binders tested against T1, mouse GLP-1 receptor (mouse, UniProt O35659 22-463) (assay: cell-based or functional assay).
T1 sequence (looked up): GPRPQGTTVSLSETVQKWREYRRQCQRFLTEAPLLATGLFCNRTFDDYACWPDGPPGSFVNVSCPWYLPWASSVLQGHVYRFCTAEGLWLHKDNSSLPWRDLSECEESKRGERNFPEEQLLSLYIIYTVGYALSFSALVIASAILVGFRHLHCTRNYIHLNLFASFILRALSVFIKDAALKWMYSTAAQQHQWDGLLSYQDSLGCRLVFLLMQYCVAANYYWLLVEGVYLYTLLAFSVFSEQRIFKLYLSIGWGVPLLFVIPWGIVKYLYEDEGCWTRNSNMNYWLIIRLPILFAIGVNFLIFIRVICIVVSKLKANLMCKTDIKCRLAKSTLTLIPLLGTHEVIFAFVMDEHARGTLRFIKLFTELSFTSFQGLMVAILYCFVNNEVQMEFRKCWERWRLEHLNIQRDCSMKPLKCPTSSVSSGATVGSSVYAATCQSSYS
B1 gave an EC50 mouse of 3 nM.

Each binder was assayed against T2, human GLP-1 receptor (human, UniProt P43220 24-463) (assay: cell-based or functional assay).
With B2 the EC50 human was 0.027 nM.
B3 showed an EC50 human of 0.13 nM.
With B4 the EC50 human was 0.2 nM.
B5 was tested, and the EC50 human was 0.00032 nM.
In the case of B6, the EC50 human is reported as 0.1 nM.
B7 showed an EC50 human of 0.039 nM.
Binder B8 has an EC50 human of 0.059 nM.

Target: T1, mouse GLP-1 receptor
Experiment: cell-based or functional assay
Remark: another data set of the same source
Work on B2 yielded an EC50 mouse of 0.12 nM.
B3 gave an EC50 mouse of 0.84 nM.
Binder B4 has an EC50 mouse of 1.6 nM.
In the case of B5, the EC50 mouse is reported as 4 nM.
Work on B6 yielded an EC50 mouse of 0.84 nM.
B7 was tested, and the EC50 mouse was 0.9 nM.
B8 gave an EC50 mouse of 0.9 nM.

Target: T2, human GLP-1 receptor
Experiment: cell-based or functional assay
Remark: another data set of the same source
B9 gave an EC50 human of 0.2 nM.
B10 gave an EC50 human of 1 nM.
In the case of B11, the EC50 human is reported as 0.086 nM.
With B12 the EC50 human was 0.2 nM.
Binder B13 has an EC50 human of 0.4 nM.
For B14, the EC50 human was 0.3 nM.
With B15 the EC50 human was 0.2 nM.
B16 gave an EC50 human of 0.5 nM.
Work on B17 yielded an EC50 human of 0.3 nM.
With B18 the EC50 human was 1 nM.
In the case of B19, the EC50 human is reported as 1 nM.
B20 was tested, and the EC50 human was 2 nM.
B21 showed an EC50 human of 0.6 nM.
With B22 the EC50 human was 4 nM.
B23 gave an EC50 human of 0.7 nM.
B24 showed an EC50 human of 0.5 nM.
Work on B25 yielded an EC50 human of 0.3 nM.
B26 was tested, and the EC50 human was 8 nM.
Binder B27 has an EC50 human of 0.8 nM.
With B28 the EC50 human was 0.4 nM.
B29 gave an EC50 human of 1 nM.

Target: T1, mouse GLP-1 receptor
Experiment: cell-based or functional assay
Remark: another data set of the same source
Binder B9 has an EC50 mouse of 0.8 nM.
B10 showed an EC50 mouse of 3 nM.
With B11 the EC50 mouse was 0.5 nM.
Work on B12 yielded an EC50 mouse of 1 nM.
B13 was tested, and the EC50 mouse was 2 nM.
B14 gave an EC50 mouse of 2 nM.
For B15, the EC50 mouse was 1 nM.
In the case of B16, the EC50 mouse is reported as 3 nM.
B17 gave an EC50 mouse of 2 nM.
B18 was tested, and the EC50 mouse was 4 nM.
B19 gave an EC50 mouse of 6 nM.
In the case of B20, the EC50 mouse is reported as 11 nM.
B21 was tested, and the EC50 mouse was 6 nM.
B22 was tested, and the EC50 mouse was 12 nM.
With B23 the EC50 mouse was 6 nM.
Work on B24 yielded an EC50 mouse of 3 nM.
B25 showed an EC50 mouse of 2 nM.
B26 gave an EC50 mouse of 41 nM.
B27 gave an EC50 mouse of 5 nM.
In the case of B28, the EC50 mouse is reported as 1 nM.
B29 gave an EC50 mouse of 5 nM.

These binders were tested against T2, human GLP-1 receptor (assay: 125I-GLP-1 displacement, membranes of CHOK1 cells expressing human GLP-1 receptor).
Procedure: (§1) Membrane Preparation. […] Cells were sedimented at 1500 rpm for 10 minutes. The resulting pellets were homogenized in 15 mls of ice cold sucrose buffer (25 mM Tris-HCl, 0.32 M Sucrose, 0.25 g/L, sodium azide, pH 7.4) with a motorized, glass fitted, Teflon homogenizer. The homogenate was centrifuged at 48,000×g at 4° C. for 10 minutes, resuspended in 25 ml assay buffer (50 mM Tris-HCl, 5 mM MgCl₂, 10 mg/ml protease-free BSA, 0.1 mg/ml STI, and 0.1 mg/ml Pefabloc, pH 7.4) with a Tissue-Tearor (Biospec Products), then centrifuged again at 48,000×g for 10 minutes. The pellets were homogenized for a third time in 15 ml assay buffer using the Tissue-Tearor and again centrifuged at 48,000×g for 10 minutes. The resulting pellet was resuspended in assay buffer at a wet weight concentration of 4 mg/ml.
Ligand Binding Assay. Binding assays were performed in 96-well U-bottom plates. […] The reaction was terminated by rapid filtration through Unfilter-96 GF/C glass fiber filter plates (FilterMate 196 Packard Harvester, PerkinElmer, Shelton, Conn.) pre-soaked in 0.5% polyethylenimine, followed by three washes with 300 μl of cold 50 mM Tris-HCl, pH 7.4. Bound radioactivity was determined using a TopCount microplate scintillation and luminescence counter (Packard Instrument Company, PerkinElmer, Shelton, Conn.). Nonlinear regression analyses of resulting concentration curves were performed using GraphPad Prism (GraphPad Software, Inc., San Diego, Calif.). […]
B2 showed an IC50 of 3.5 nM.
B3 showed an IC50 of 56 nM.
B4 showed an IC50 of 50 nM.
With B5 the IC50 was 230 nM.
With B6 the IC50 was 47 nM.
B7 showed an IC50 of 15 nM.
Work on B8 yielded an IC50 of 23 nM.

Target: T2, human GLP-1 receptor
Experiment: as above
Remark: another data set of the same source
Procedure: as §1
Ligand Binding Assay. Binding assays were performed in 96-well U-bottom plates. […] The reaction was terminated by rapid filtration through Unfilter-96 GF/C glass fiber filter plates (FilterMate 196 Packard Harvester, PerkinElmer, Shelton, Conn.) pre-soaked in 0.5% polyethylenimine, followed by three washes with 300 μl of cold 50 mM Tris-HCl, pH 7.4. Bound radioactivity was determined using a TopCount microplate scintillation and luminescence counter (Packard Instrument Company, PerkinElmer, Shelton, Conn.). Nonlinear regression analyses of resulting concentration curves were performed using GraphPad Prism (GraphPad Software, Inc., San Diego, Calif.).
B9 showed an IC50 of 38 nM.
Work on B10 yielded an IC50 of 80 nM.
In the case of B12, the IC50 is reported as 38 nM.
Work on B13 yielded an IC50 of 53 nM.
For B14, the IC50 was 53 nM.
B15 showed an IC50 of 32 nM.
B16 showed an IC50 of 64 nM.
Binder B17 has an IC50 of 82 nM.
In the case of B18, the IC50 is reported as 95 nM.
In the case of B19, the IC50 is reported as 180 nM.
With B20 the IC50 was 350 nM.
With B21 the IC50 was 75 nM.
With B22 the IC50 was 760 nM.
With B23 the IC50 was 160 nM.
Binder B24 has an IC50 of 100 nM.
B25 gave an IC50 of 50 nM.
Binder B26 has an IC50 of 590 nM.
With B27 the IC50 was 79 nM.
Work on B28 yielded an IC50 of 57 nM.
Binder B29 has an IC50 of 350 nM.
